Reference: patent publication US20220031841A1 (ABSCI, published 2022)

Target: T1, Inorganic pyrophosphatase (PPA1) (human, UniProt Q15181 2-289)
T1 construct: The array carries full-length recombinant human proteins expressed in S. cerevisiae; also called Human PPA1
T1 sequence: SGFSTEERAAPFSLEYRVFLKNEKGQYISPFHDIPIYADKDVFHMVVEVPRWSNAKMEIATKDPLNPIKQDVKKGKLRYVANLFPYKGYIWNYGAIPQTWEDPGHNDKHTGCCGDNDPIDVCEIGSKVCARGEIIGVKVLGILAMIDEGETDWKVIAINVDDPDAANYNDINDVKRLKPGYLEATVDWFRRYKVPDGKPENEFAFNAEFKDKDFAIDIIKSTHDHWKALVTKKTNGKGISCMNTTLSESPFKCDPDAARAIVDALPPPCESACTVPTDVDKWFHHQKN
Test: HuProt protein array, antibody at 1 µg/ml, Alexa-647 anti-human IgG Fc; F635 signal as z-score; PPA1 replicate 1
Description: Large scale protein arrays are versatile and sensitive platforms for antibody specificity evaluation. They can be used for the evaluation of protein binding or affinity reagents that are widely employed in research and clinical applications. The microarray used in our target identification experiment provides the largest number of unique, full-length, individually purified human proteins on a single microscope slide. This allows thousands of interactions to be profiled in a high-throughput manner. The hill-length recombinant proteins are expressed in the yeast S. cerevisiae, purified, and printed on glass slides in duplicate along with a set of control proteins (GST, BSA, histones, IgG, etc.). Such microarray is not restricted to a particular type of surface coating, although the default is glass coated with ultra-thin nitrocellulose film for the non-covalent, yet irreversible, capture of active proteins to the surface. Fourteen Protein arrays were used for the antibody cross-reactivity assay of the samples. […] The antibody-antigen binding score was calculated for each protein represented on the array and expressed as z-scores. […]
Z score is the average Z score of the duplicate spots of a given protein (each protein is printed in duplicate on a HuProt™ array). The Z score of each spot on a given array is calculated according to the equation: […]

binding result: binds
B1: TMEL1010 (antibody, V domains shown)
VH: QVQLVQSGAEVKKPGASVKVSCKASGYTFSSYGISWVRQAPGQGLEWMGWISAYNGNTNYAKKLQGRVTMTTDTSTSTAYLELRSLRSDDTAVYYCARGDGPFDYWGQGTLVTVSS
VL: EIVMTQSPATLSVSPGERATLSCWASQSVSSSLAWYQQKPGQAPRLLMYGASNRATGIPARFSGSGSGTEFTLTISSLQSEDFAVYYCQQYNKWPPDTFGQGTKLEIKR
notes: It was detected with an anti-human IgG Fc gamma secondary antibody
